According to publication PMC11160731:

Tests used:
VapB46;VapC46 = VapB46;VapC46 (Mycobacterium tuberculosis …, UniProt P9WF13;O50411 1-102;1-130, |); assay: EMSA
VapB27;VapC27 = VapB27;VapC27 (Mycobacterium tuberculosis …, UniProt O07779;P9WF83 1-78;1-137, |); assay: EMSA
Chain of VapB27;VapC27 (O07779 whole entry, chain 1 of 2): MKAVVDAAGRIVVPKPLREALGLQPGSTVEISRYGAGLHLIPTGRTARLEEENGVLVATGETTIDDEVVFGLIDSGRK
Chain of VapB27;VapC27 (P9WF83 whole entry, chain 2 of 2): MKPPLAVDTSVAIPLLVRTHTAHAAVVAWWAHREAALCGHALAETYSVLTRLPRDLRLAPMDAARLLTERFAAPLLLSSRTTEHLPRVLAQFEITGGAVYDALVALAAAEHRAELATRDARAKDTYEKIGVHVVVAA

Chain of VapB46;VapC46 (P9WF13 whole entry, chain 1 of 2): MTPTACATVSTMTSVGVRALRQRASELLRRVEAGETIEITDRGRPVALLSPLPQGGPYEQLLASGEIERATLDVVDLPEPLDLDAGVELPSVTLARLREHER
Chain of VapB46;VapC46 (O50411 whole entry, chain 2 of 2): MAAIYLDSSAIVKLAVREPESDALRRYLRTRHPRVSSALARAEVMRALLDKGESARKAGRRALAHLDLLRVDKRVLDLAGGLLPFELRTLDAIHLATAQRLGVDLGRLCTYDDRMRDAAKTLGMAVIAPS

B1: vapB46 promoter oligo (dsDNA)
DNA 1: TCCTCCCAGCTCAGCGCCAACCAACCGAGGAACAACGCGCCGACTTTTTCAG
DNA 2: CTGAAAAAGTCGGCGCGTTGTTCCTCGGTTGGTTGGCGCTGAGCTGGGAGGA
binding result (VapB46;VapC46): binds

B2: vapB27 promoter oligo (dsDNA)
DNA 1: CGGTGAGTCGACTTCCGCACCTGAGTGGGAAGCCATTGGTATCGTATTCCCATGA
DNA 2: TCATGGGAATACGATACCAATGGCTTCCCACTCAGGTGCGGAAGTCGACTCACCG
binding result (VapB27;VapC27): binds
